Laboratory results published in PMC3069016 (Molecular Biology of the Cell, 2011).

Target: T1, Csn10-CBP-A2 (S. cerevisiae, UniProt Q12348 1-645)
T1 sequence (looked up): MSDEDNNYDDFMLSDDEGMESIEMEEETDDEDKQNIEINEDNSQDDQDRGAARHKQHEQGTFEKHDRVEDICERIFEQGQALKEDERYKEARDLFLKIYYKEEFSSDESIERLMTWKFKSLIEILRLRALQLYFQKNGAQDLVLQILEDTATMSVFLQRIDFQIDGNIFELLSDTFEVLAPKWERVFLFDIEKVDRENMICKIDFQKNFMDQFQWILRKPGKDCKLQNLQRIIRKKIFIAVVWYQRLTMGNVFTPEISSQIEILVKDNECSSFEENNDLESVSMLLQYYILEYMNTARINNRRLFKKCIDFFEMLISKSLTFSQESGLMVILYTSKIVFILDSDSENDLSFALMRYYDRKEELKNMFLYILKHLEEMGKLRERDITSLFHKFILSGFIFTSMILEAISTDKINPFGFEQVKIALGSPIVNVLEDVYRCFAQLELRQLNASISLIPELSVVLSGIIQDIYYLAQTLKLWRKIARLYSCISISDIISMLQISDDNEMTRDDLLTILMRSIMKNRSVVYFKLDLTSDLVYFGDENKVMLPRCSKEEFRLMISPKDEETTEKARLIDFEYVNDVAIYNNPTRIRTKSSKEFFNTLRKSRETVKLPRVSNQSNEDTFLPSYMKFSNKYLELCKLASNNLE
Experiment: affinity purification with mass spectrometry

stoichiometry N: 1
B1: Rpn5 (natural protein, S. cerevisiae, UniProt Q12250 1-445, looked up)
chain: MSRDAPIKADKDYSQILKEEFPKIDSLAQNDCNSALDQLLVLEKKTRQASDLASSKEVLAKIVDLLASRNKWDDLNEQLTLLSKKHGQLKLSIQYMIQKVMEYLKSSKSLDLNTRISVIETIRVVTENKIFVEVERARVTKDLVEIKKEEGKIDEAADILCELQVETYGSMEMSEKIQFILEQMELSILKGDYSQATVLSRKILKKTFKNPKYESLKLEYYNLLVKISLHKREYLEVAQYLQEIYQTDAIKSDEAKWKPVLSHIVYFLVLSPYGNLQNDLIHKIQNDNNLKKLESQESLVKLFTTNELMRWPIVQKTYEPVLNEDDLAFGGEANKHHWEDLQKRVIEHNLRVISEYYSRITLLRLNELLDLTESQTETYISDLVNQGIIYAKVNRPAKIVNFEKPKNSSQLLNEWSHNVDELLEHIETIGHLITKEEIMHGLQAK
